# Results: article PMC4191393, “Selective microRNA uridylation by Zcchc6 (TUT7) and Zcchc11 (TUT4)”
# T1: r.Zcchc11 (TUT4) (Homo sapiens, UniProt Q5TAX3 225-1384)
# T1 sequence: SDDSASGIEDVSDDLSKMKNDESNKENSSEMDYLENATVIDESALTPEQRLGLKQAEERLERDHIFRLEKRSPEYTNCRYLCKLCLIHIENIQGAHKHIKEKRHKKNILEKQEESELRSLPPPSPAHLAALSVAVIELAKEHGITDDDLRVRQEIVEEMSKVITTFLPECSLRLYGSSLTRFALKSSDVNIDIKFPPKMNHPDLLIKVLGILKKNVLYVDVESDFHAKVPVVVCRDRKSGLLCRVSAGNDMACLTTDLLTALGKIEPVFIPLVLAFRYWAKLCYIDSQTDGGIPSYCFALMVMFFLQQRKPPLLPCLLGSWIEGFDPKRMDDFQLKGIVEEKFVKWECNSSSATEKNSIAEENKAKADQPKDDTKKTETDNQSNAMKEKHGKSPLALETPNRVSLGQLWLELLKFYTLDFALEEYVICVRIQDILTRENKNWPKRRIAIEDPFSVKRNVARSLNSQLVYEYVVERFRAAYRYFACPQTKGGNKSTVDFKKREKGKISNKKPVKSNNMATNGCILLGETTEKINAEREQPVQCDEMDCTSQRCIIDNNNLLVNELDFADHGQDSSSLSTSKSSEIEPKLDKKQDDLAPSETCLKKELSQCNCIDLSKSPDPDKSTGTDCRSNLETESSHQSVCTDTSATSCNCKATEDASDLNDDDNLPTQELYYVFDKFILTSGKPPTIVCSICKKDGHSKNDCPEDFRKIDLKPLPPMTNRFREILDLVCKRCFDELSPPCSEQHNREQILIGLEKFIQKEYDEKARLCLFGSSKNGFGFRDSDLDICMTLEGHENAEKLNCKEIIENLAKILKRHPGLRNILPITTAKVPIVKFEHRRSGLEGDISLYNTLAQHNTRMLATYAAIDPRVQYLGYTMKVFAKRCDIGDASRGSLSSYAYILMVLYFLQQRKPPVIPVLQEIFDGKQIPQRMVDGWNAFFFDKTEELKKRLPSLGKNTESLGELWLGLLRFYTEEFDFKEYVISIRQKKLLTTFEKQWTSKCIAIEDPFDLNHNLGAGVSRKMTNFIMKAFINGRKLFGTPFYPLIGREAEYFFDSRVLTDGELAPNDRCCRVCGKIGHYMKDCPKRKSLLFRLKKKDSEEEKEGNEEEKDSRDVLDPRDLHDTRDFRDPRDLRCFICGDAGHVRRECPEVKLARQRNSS
# B1: let-7g guide (ssRNA)
# RNA: UGAGGUAGUAGUUUGUACAGUU
# Target: T1, r.Zcchc11 (TUT4)
# Assay: EMSA; 2 mM Mg2+; RNA 2.5 nM; EMSA: 500 mM NaCl, 20 mM HEPES pH 7.5, 2 mM MgCl2, 5% glycerol, 1 mM TCEP; 10 ul, 3-50 ng protein, 2.5 nM RNA; native 12% PAGE in 0.5x TBE; temperature not stated
# Settings: protein: recombinant; tags: N-terminal His6-Trx, removed with TEV; label: 5'-32P; single strand
binder,measurement,value
B1,binding result,binds
